Key:
[1] = target: T1, native-sequence human IGFBP-3 (human, UniProt P17936 28-291); assay: BIAcore competition: bp15 (15 nM to 100 µM) pre-incubated 1 h with 20 nM IGFBP-3, injected over immobilised biotinylated IGF-II (bIGF-II, triangles); blocked ligand IGF-II; one-site competition fit
T1 construct: also called wild-type IGFBP-3; full-length IGFBP-3

[2] = target: T1, native-sequence human IGFBP-3; assay: BIAcore competition: bp15 (15 nM to 100 µM) pre-incubated 1 h with 20 nM IGFBP-3, injected over immobilised biotinylated IGF-I (bIGF-I, squares); blocked ligand IGF-I; one-site competition fit
[3] = target: T2, miniBP-3 fusion protein (human); assay: BIAcore competition, bp15 preincubated with miniBP-3 fusion, injected over immobilised biotinylated IGF-I
T2 construct: Uncleaved fusion, made in E. coli BL21 from pET21a and purified on IgG Sepharose

B1: peptide bp15 (peptide)
peptide: SEEVCWPVAEWYLCN
notes: Identified by phage display (Lowman et al. 1998); also called bp15 peptide
**Q.** B1 was tested. Which IC50 [1] did it give?
**A.** 147 nM

**Q.** What about the IC50 [2] of the same binder?
**A.** 105 nM

**Q.** Does B1 bind [3]?
**A.** binds
